Measured values: patent US20230251254A1, “METHOD FOR EVALUATING INTERACTION BETWEEN IMMOBILIZED SUBSTANCE IMMOBILIZED DIRECTLY OR INDIRECTLY ON SUBSTRATE AND PROXIMITY-DEPENDENT MODIFYING ENZYMELABELED SUBSTANCE TO BE ANALYZED” (CELLFREE SCIENCES CO.,LTD., priority 2020, published 2023)

Tests used:
[1] = tested on: interaction between TP53 and MDM2 or between Iκβα and RelA; experiment: Comparison of altered biotinylation enzymes by the method of Example 2 (Example 4); type: biochemical; details: 75 nL magnetic beads; luminescence detection
Method: In this Example, various altered biotinylation enzymes were evaluated by the method used in Example 2.
Specifically, by a method similar to that for AirID (SEQ ID NO: 3) in Example 2, the interaction between TP53 and MDM2 or between Iκβα and RelA was analyzed using BioID (SEQ ID NO: 1), TurboID (SEQ ID NO: 2), an AirID-S118G mutant (SEQ ID NO: 12), an AWA-R118S mutant (SEQ ID NO: 13), an AVVA-R118G mutant (SEQ ID NO: 14), an AWA-R118S, Q141R mutant (SEQ ID NO: 15), and an AVVA-R118G, Q141R mutant (SEQ ID NO: 16).
The results in the figures were standardized in that the dispensation amount of the magnetic beads on the wells of the plate was 75 nL. An exposure time at the time of luminescence detection with LAS4000 (manufactured by GE Healthcare) was set to 3 minutes for TurboID, and 10 minutes for the protein of any other sequence identification number. A signal value was obtained from a measurement image through use of Array-Pro Analyzer™.

[2] = biological target: T1, FLAG-GST-fused MDM2 (UniProt P23804 1-489); experiment: proximity-biotinylation bead array, streptavidin-HRP luminescence; labeling 26°C 30 min; exposure 10 min
T1 construct: Immobilized on glutathione magnetic beads on the non-denatured protein array; Order of the parts follows the printed name FLAG-GST; also called FLAG-GST-fused immobilized substance (MDM2); not shown: FLAG tag protein; GST protein (glutathione S-transferase tag)

[3] = biological target: T1, FLAG-GST-fused MDM2; experiment: proximity-biotinylation bead array, streptavidin-HRP luminescence; labeling 26°C; exposure 10 min
[4] = biological target: T2, FLAG-GST-fused RelA (UniProt Q04206 1-551); experiment: proximity-biotinylation bead array, streptavidin-HRP luminescence; labeling 26°C 1 h; exposure 10 min
T2 construct: Immobilized on glutathione magnetic beads on the non-denatured protein array; Order of the parts follows the printed name FLAG-GST; also called FLAG-GST-fused immobilized substance (RelA); not shown: FLAG tag protein; GST protein (glutathione S-transferase tag)

[5] = biological target: T1, FLAG-GST-fused MDM2; experiment: as above
[6] = biological target: T2, FLAG-GST-fused RelA; experiment: proximity-biotinylation bead array, streptavidin-HRP luminescence; labeling 26°C 3 h; exposure 10 min
[7] = biological target: T1, FLAG-GST-fused MDM2; experiment: as above
[8] = biological target: T2, FLAG-GST-fused RelA; experiment: proximity-biotinylation bead array, streptavidin-HRP luminescence; labeling 26°C 30 min; exposure 10 min

T1 sequence (P23804 whole entry, the tested form may be a part): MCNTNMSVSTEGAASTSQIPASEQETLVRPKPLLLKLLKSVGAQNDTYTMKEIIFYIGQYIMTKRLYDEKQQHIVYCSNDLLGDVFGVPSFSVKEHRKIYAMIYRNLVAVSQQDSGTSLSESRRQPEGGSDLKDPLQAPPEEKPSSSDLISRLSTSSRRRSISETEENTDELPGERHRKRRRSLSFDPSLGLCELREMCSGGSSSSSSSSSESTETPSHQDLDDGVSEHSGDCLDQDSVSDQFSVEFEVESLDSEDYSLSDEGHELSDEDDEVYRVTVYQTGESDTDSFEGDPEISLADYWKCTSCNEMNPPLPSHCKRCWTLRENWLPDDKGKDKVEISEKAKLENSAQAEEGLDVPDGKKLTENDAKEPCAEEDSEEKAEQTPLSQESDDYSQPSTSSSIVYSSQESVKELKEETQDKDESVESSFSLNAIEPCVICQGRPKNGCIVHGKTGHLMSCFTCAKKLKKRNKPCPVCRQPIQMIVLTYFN
T2 sequence (Q04206 other isoform, or with tags, fused parts or gaps): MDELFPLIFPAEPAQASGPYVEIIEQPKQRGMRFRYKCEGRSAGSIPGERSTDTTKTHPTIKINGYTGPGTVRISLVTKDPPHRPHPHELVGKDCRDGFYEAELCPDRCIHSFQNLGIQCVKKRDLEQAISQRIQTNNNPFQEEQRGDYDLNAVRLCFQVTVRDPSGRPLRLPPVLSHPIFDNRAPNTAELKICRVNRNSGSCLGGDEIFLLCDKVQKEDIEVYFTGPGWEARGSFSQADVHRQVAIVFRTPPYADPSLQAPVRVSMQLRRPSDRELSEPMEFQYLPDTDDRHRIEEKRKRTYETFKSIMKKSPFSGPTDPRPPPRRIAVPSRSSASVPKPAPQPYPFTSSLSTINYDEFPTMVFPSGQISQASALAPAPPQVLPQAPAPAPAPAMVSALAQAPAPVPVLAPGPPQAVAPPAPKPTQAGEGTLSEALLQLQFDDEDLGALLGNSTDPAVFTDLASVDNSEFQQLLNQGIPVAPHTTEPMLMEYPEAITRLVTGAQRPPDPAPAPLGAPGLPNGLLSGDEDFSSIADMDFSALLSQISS

Molecule	specificity / non-specific signal of labeling [1]	signal value [2]	binding result [3]	signal value [4]	signal value [5]	signal value [6]	signal value [7]	signal value [8]
AWA-R118S mutant: proximity-dependent biotin ligase, SEQ ID NO: 13 (protein, AVVA-R118S) MSEQWSRKREILALLSSGHFVSGEELATQLGISRTAVSKHIAALEEYGVDIYSVKGKGYKLANPISLIDESKLKSAINNRCFYFDEIPSTNGFMLKHAEELKSGDICVAEYQSAGRGSRGRTWVSPYGCHLYFSLYWRFPQGMAQAMGLSLVVACSLVKVLKSFGVDGVGVKWPNDIYLNHKKLAGVLIEMSGQADSECHLVIGIGINMAMSEQQGKKIDQPWSDLSSLTSMPDKTELLIALQKQLKQDLELFEREGLKAFQPRWQEADLFYGKQIKLLMGENQVEGICRGIDEQGAVLLETDDGIQAFIGGEISLRAA	extremely high specificity	–	–	–	–	–	–	–
AVVA-R118G mutant: proximity-dependent biotin ligase, SEQ ID NO: 14 (protein, AVVA-R118G) MSEQWSRKREILALLSSGHFVSGEELATQLGISRTAVSKHIAALEEYGVDIYSVKGKGYKLANPISLIDESKLKSAINNRCFYFDEIPSTNGFMLKHAEELKSGDICVAEYQSAGRGGRGRTWVSPYGCHLYFSLYWRFPQGMAQAMGLSLVVACSLVKVLKSFGVDGVGVKWPNDIYLNHKKLAGVLIEMSGQADSECHLVIGIGINMAMSEQQGKKIDQPWSDLSSLTSMPDKTELLIALQKQLKQDLELFEREGLKAFQPRWQEADLFYGKQIKLLMGENQVEGICRGIDEQGAVLLETDDGIQAFIGGEISLRAA	extremely high specificity	–	–	–	–	–	–	–
AirID-S118G mutant: proximity-dependent biotin ligase, SEQ ID NO: 12 (protein, AirID_S118G) MKDNTVPLTLISILADGEFHSGEQLGEQLGMSRAAINKHIKTLRDWGVDVFRVQGKGYCLPEPIQLLDEEKIRQQLDEGSVTVLPVIDSTNQYLLDRLDELTSGDVCIAEYQQAGRGGRGRKWFSPFGANLYLSMYWRLEQGPAAAMGLSLVIGIVMAETLQKLGADGVRVKWPNDLYLNDRKLAGILVEMTGKTGDAAHIVIGAGINLSMREPETDEVDQSWINLQEAGITIDRNQLAARLIKDLRSALRQFEQQGLAPFLSRWEALDNFINRPVKLIIGDREIHGIARGINEQGALLLEQDGVIKPWIGGEISLRSA	extremely high specificity	–	–	–	–	–	–	–
AVVA-R118S mutant-fused Iκβα (other) fusion protein: MSEQWSRKREILALLSSGHFVSGEELATQLGISRTAVSKHIAALEEYGVDIYSVKGKGYKLANPISLIDESKLKSAINNRCFYFDEIPSTNGFMLKHAEELKSGDICVAEYQSAGRGSRGRTWVSPYGCHLYFSLYWRFPQGMAQAMGLSLVVACSLVKVLKSFGVDGVGVKWPNDIYLNHKKLAGVLIEMSGQADSECHLVIGIGINMAMSEQQGKKIDQPWSDLSSLTSMPDKTELLIALQKQLKQDLELFEREGLKAFQPRWQEADLFYGKQIKLLMGENQVEGICRGIDEQGAVLLETDDGIQAFIGGEISLRAAMFQAAERPQEWAMEGPRDGLKKERLLDDRHDSGLDSMKDEEYEQMVKELQEIRLEPQEVPRSSEPWKQQLTEDGDSFLHLAIIHEEKALTMEVIRQVKGDLAFLNFQNNLQQTPLHLAVITNQPEIAEALLGAGCDPELRDFRGNTPLHLACEQGCLASVGVLTQSCTTPHLHSILKATNYNGHTCLHLASIHGYLGIVELLVSLGADVNAQEPCNGRTALHLAVDLQNPDLVSLLLKCGADVNRVTYQGYSPYQLTWGRPSTRIQQQLGQLTLENLQMLPESEDEESYDTESEFTEFTEDELPYDDCVFGGQRLTL	–	320	no binding	11100	310	50000	330	–
AVVA-R118G,Q141R mutant-fused Iκβα (other) fusion protein: MSEQWSRKREILALLSSGHFVSGEELATQLGISRTAVSKHIAALEEYGVDIYSVKGKGYKLANPISLIDESKLKSAINNRCFYFDEIPSTNGFMLKHAEELKSGDICVAEYQSAGRGGRGRTWVSPYGCHLYFSLYWRFPRGMAQAMGLSLVVACSLVKVLKSFGVDGVGVKWPNDIYLNHKKLAGVLIEMSGQADSECHLVIGIGINMAMSEQQGKKIDQPWSDLSSLTSMPDKTELLIALQKQLKQDLELFEREGLKAFQPRWQEADLFYGKQIKLLMGENQVEGICRGIDEQGAVLLETDDGIQAFIGGEISLRAAMFQAAERPQEWAMEGPRDGLKKERLLDDRHDSGLDSMKDEEYEQMVKELQEIRLEPQEVPRSSEPWKQQLTEDGDSFLHLAIIHEEKALTMEVIRQVKGDLAFLNFQNNLQQTPLHLAVITNQPEIAEALLGAGCDPELRDFRGNTPLHLACEQGCLASVGVLTQSCTTPHLHSILKATNYNGHTCLHLASIHGYLGIVELLVSLGADVNAQEPCNGRTALHLAVDLQNPDLVSLLLKCGADVNRVTYQGYSPYQLTWGRPSTRIQQQLGQLTLENLQMLPESEDEESYDTESEFTEFTEDELPYDDCVFGGQRLTL	–	550	no binding	10100	280	> 65000	430	–
AVVA-R118G mutant-fused Iκβα (other) fusion protein: MSEQWSRKREILALLSSGHFVSGEELATQLGISRTAVSKHIAALEEYGVDIYSVKGKGYKLANPISLIDESKLKSAINNRCFYFDEIPSTNGFMLKHAEELKSGDICVAEYQSAGRGGRGRTWVSPYGCHLYFSLYWRFPQGMAQAMGLSLVVACSLVKVLKSFGVDGVGVKWPNDIYLNHKKLAGVLIEMSGQADSECHLVIGIGINMAMSEQQGKKIDQPWSDLSSLTSMPDKTELLIALQKQLKQDLELFEREGLKAFQPRWQEADLFYGKQIKLLMGENQVEGICRGIDEQGAVLLETDDGIQAFIGGEISLRAAMFQAAERPQEWAMEGPRDGLKKERLLDDRHDSGLDSMKDEEYEQMVKELQEIRLEPQEVPRSSEPWKQQLTEDGDSFLHLAIIHEEKALTMEVIRQVKGDLAFLNFQNNLQQTPLHLAVITNQPEIAEALLGAGCDPELRDFRGNTPLHLACEQGCLASVGVLTQSCTTPHLHSILKATNYNGHTCLHLASIHGYLGIVELLVSLGADVNAQEPCNGRTALHLAVDLQNPDLVSLLLKCGADVNRVTYQGYSPYQLTWGRPSTRIQQQLGQLTLENLQMLPESEDEESYDTESEFTEFTEDELPYDDCVFGGQRLTL	–	140	no binding	–	230	39400	310	6900
AirID-S118G mutant-fused Iκβα (other) fusion protein: MKDNTVPLTLISILADGEFHSGEQLGEQLGMSRAAINKHIKTLRDWGVDVFRVQGKGYCLPEPIQLLDEEKIRQQLDEGSVTVLPVIDSTNQYLLDRLDELTSGDVCIAEYQQAGRGGRGRKWFSPFGANLYLSMYWRLEQGPAAAMGLSLVIGIVMAETLQKLGADGVRVKWPNDLYLNDRKLAGILVEMTGKTGDAAHIVIGAGINLSMREPETDEVDQSWINLQEAGITIDRNQLAARLIKDLRSALRQFEQQGLAPFLSRWEALDNFINRPVKLIIGDREIHGIARGINEQGALLLEQDGVIKPWIGGEISLRSAMFQAAERPQEWAMEGPRDGLKKERLLDDRHDSGLDSMKDEEYEQMVKELQEIRLEPQEVPRSSEPWKQQLTEDGDSFLHLAIIHEEKALTMEVIRQVKGDLAFLNFQNNLQQTPLHLAVITNQPEIAEALLGAGCDPELRDFRGNTPLHLACEQGCLASVGVLTQSCTTPHLHSILKATNYNGHTCLHLASIHGYLGIVELLVSLGADVNAQEPCNGRTALHLAVDLQNPDLVSLLLKCGADVNRVTYQGYSPYQLTWGRPSTRIQQQLGQLTLENLQMLPESEDEESYDTESEFTEFTEDELPYDDCVFGGQRLTL	–	240	no binding	10200	220	51400	370	9570
